Experimental data reported in article PMC12416549 (2024).

Biological target: T1, TNFR1 (Homo sapiens, UniProt P19438)
T1 chain: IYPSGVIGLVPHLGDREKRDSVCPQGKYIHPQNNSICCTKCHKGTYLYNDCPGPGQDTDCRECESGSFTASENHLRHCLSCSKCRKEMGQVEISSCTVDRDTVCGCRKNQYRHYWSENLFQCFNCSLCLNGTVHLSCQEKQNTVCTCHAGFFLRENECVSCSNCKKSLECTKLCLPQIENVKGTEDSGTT
Assay: yeast display SC50

| Binder | apparent Kd (screen) |
| --- | --- |
| L82H (designed binder) MTLQELLREEALRRAEAEAFRYALELLAEKFPEQKEYLLDLAEEIESQIRSLSGVDVEDVRKFLDKEWAWVKELLAEHPAEHAEVEAARAARLAELRAEVEAKVAA | 593 pM |
| K30H (designed binder) MTLQELLREEALRRAEAEAFRYALELLAEHFPEQKEYLLDLAEEIESQIRSLSGVDVEDVRKFLDKEWAWVKELLAEHPAELAEVEAARAARLAELRAEVEAKVAA | 490 pM |
| E9N (designed binder) MTLQELLRNEALRRAEAEAFRYALELLAEKFPEQKEYLLDLAEEIESQIRSLSGVDVEDVRKFLDKEWAWVKELLAEHPAELAEVEAARAARLAELRAEVEAKVAA | 593 pM |
| L93E (designed binder) MTLQELLREEALRRAEAEAFRYALELLAEKFPEQKEYLLDLAEEIESQIRSLSGVDVEDVRKFLDKEWAWVKELLAEHPAELAEVEAARAAREAELRAEVEAKVAA | 869 pM |
| E18W (designed binder) MTLQELLREEALRRAEAWAFRYALELLAEKFPEQKEYLLDLAEEIESQIRSLSGVDVEDVRKFLDKEWAWVKELLAEHPAELAEVEAARAARLAELRAEVEAKVAA | 446 pM |
| M1Q (designed binder) QTLQELLREEALRRAEAEAFRYALELLAEKFPEQKEYLLDLAEEIESQIRSLSGVDVEDVRKFLDKEWAWVKELLAEHPAELAEVEAARAARLAELRAEVEAKVAA | 593 pM |
| A102D (designed binder) MTLQELLREEALRRAEAEAFRYALELLAEKFPEQKEYLLDLAEEIESQIRSLSGVDVEDVRKFLDKEWAWVKELLAEHPAELAEVEAARAARLAELRAEVEDKVAA | 539 pM |
| E18V (designed binder) MTLQELLREEALRRAEAVAFRYALELLAEKFPEQKEYLLDLAEEIESQIRSLSGVDVEDVRKFLDKEWAWVKELLAEHPAELAEVEAARAARLAELRAEVEAKVAA | 790 pM |
| Y22R (designed binder) MTLQELLREEALRRAEAEAFRRALELLAEKFPEQKEYLLDLAEEIESQIRSLSGVDVEDVRKFLDKEWAWVKELLAEHPAELAEVEAARAARLAELRAEVEAKVAA | 593 pM |
| A15S (designed binder) MTLQELLREEALRRSEAEAFRYALELLAEKFPEQKEYLLDLAEEIESQIRSLSGVDVEDVRKFLDKEWAWVKELLAEHPAELAEVEAARAARLAELRAEVEAKVAA | 539 pM |
| E84D (designed binder) MTLQELLREEALRRAEAEAFRYALELLAEKFPEQKEYLLDLAEEIESQIRSLSGVDVEDVRKFLDKEWAWVKELLAEHPAELADVEAARAARLAELRAEVEAKVAA | 490 pM |
| P32I (designed binder) MTLQELLREEALRRAEAEAFRYALELLAEKFIEQKEYLLDLAEEIESQIRSLSGVDVEDVRKFLDKEWAWVKELLAEHPAELAEVEAARAARLAELRAEVEAKVAA | 490 pM |
| E101L (designed binder) MTLQELLREEALRRAEAEAFRYALELLAEKFPEQKEYLLDLAEEIESQIRSLSGVDVEDVRKFLDKEWAWVKELLAEHPAELAEVEAARAARLAELRAEVLAKVAA | 593 pM |
| V100H (designed binder) MTLQELLREEALRRAEAEAFRYALELLAEKFPEQKEYLLDLAEEIESQIRSLSGVDVEDVRKFLDKEWAWVKELLAEHPAELAEVEAARAARLAELRAEHEAKVAA | 869 pM |
| E5I (designed binder) MTLQILLREEALRRAEAEAFRYALELLAEKFPEQKEYLLDLAEEIESQIRSLSGVDVEDVRKFLDKEWAWVKELLAEHPAELAEVEAARAARLAELRAEVEAKVAA | 490 pM |
| E101Q (designed binder) MTLQELLREEALRRAEAEAFRYALELLAEKFPEQKEYLLDLAEEIESQIRSLSGVDVEDVRKFLDKEWAWVKELLAEHPAELAEVEAARAARLAELRAEVQAKVAA | 718 pM |
| L82T (designed binder) MTLQELLREEALRRAEAEAFRYALELLAEKFPEQKEYLLDLAEEIESQIRSLSGVDVEDVRKFLDKEWAWVKELLAEHPAETAEVEAARAARLAELRAEVEAKVAA | 653 pM |
| L74F (designed binder) MTLQELLREEALRRAEAEAFRYALELLAEKFPEQKEYLLDLAEEIESQIRSLSGVDVEDVRKFLDKEWAWVKEFLAEHPAELAEVEAARAARLAELRAEVEAKVAA | 790 pM |

| Binder | apparent Kd (screen) |
| --- | --- |
| L27I (designed binder) MTLQELLREEALRRAEAEAFRYALELIAEKFPEQKEYLLDLAEEIESQIRSLSGVDVEDVRKFLDKEWAWVKELLAEHPAELAEVEAARAARLAELRAEVEAKVAA | 1270 pM |
| L82C (designed binder) MTLQELLREEALRRAEAEAFRYALELLAEKFPEQKEYLLDLAEEIESQIRSLSGVDVEDVRKFLDKEWAWVKELLAEHPAECAEVEAARAARLAELRAEVEAKVAA | 593 pM |
| E81R (designed binder) MTLQELLREEALRRAEAEAFRYALELLAEKFPEQKEYLLDLAEEIESQIRSLSGVDVEDVRKFLDKEWAWVKELLAEHPARLAEVEAARAARLAELRAEVEAKVAA | 539 pM |
| T2V (designed binder) MVLQELLREEALRRAEAEAFRYALELLAEKFPEQKEYLLDLAEEIESQIRSLSGVDVEDVRKFLDKEWAWVKELLAEHPAELAEVEAARAARLAELRAEVEAKVAA | 593 pM |
| E95I (designed binder) MTLQELLREEALRRAEAEAFRYALELLAEKFPEQKEYLLDLAEEIESQIRSLSGVDVEDVRKFLDKEWAWVKELLAEHPAELAEVEAARAARLAILRAEVEAKVAA | 446 pM |
| K103I (designed binder) MTLQELLREEALRRAEAEAFRYALELLAEKFPEQKEYLLDLAEEIESQIRSLSGVDVEDVRKFLDKEWAWVKELLAEHPAELAEVEAARAARLAELRAEVEAIVAA | 1050 pM |
| E25P (designed binder) MTLQELLREEALRRAEAEAFRYALPLLAEKFPEQKEYLLDLAEEIESQIRSLSGVDVEDVRKFLDKEWAWVKELLAEHPAELAEVEAARAARLAELRAEVEAKVAA | 2250 pM |
| R97P (designed binder) MTLQELLREEALRRAEAEAFRYALELLAEKFPEQKEYLLDLAEEIESQIRSLSGVDVEDVRKFLDKEWAWVKELLAEHPAELAEVEAARAARLAELPAEVEAKVAA | 869 pM |
| Q4T (designed binder) MTLTELLREEALRRAEAEAFRYALELLAEKFPEQKEYLLDLAEEIESQIRSLSGVDVEDVRKFLDKEWAWVKELLAEHPAELAEVEAARAARLAELRAEVEAKVAA | 593 pM |
| D40C (designed binder) MTLQELLREEALRRAEAEAFRYALELLAEKFPEQKEYLLCLAEEIESQIRSLSGVDVEDVRKFLDKEWAWVKELLAEHPAELAEVEAARAARLAELRAEVEAKVAA | 790 pM |
| A87W (designed binder) MTLQELLREEALRRAEAEAFRYALELLAEKFPEQKEYLLDLAEEIESQIRSLSGVDVEDVRKFLDKEWAWVKELLAEHPAELAEVEWARAARLAELRAEVEAKVAA | 653 pM |
| V100W (designed binder) MTLQELLREEALRRAEAEAFRYALELLAEKFPEQKEYLLDLAEEIESQIRSLSGVDVEDVRKFLDKEWAWVKELLAEHPAELAEVEAARAARLAELRAEWEAKVAA | 539 pM |
| L96Y (designed binder) MTLQELLREEALRRAEAEAFRYALELLAEKFPEQKEYLLDLAEEIESQIRSLSGVDVEDVRKFLDKEWAWVKELLAEHPAELAEVEAARAARLAEYRAEVEAKVAA | 490 pM |
| R8N (designed binder) MTLQELLNEEALRRAEAEAFRYALELLAEKFPEQKEYLLDLAEEIESQIRSLSGVDVEDVRKFLDKEWAWVKELLAEHPAELAEVEAARAARLAELRAEVEAKVAA | 539 pM |
| V85I (designed binder) MTLQELLREEALRRAEAEAFRYALELLAEKFPEQKEYLLDLAEEIESQIRSLSGVDVEDVRKFLDKEWAWVKELLAEHPAELAEIEAARAARLAELRAEVEAKVAA | 593 pM |
| E46G (designed binder) MTLQELLREEALRRAEAEAFRYALELLAEKFPEQKEYLLDLAEEIGSQIRSLSGVDVEDVRKFLDKEWAWVKELLAEHPAELAEVEAARAARLAELRAEVEAKVAA | 490 pM |
| A94S (designed binder) MTLQELLREEALRRAEAEAFRYALELLAEKFPEQKEYLLDLAEEIESQIRSLSGVDVEDVRKFLDKEWAWVKELLAEHPAELAEVEAARAARLSELRAEVEAKVAA | 593 pM |
